Laboratory results from patent publication US9176064B2, “Bisubstrate fluorescent probes for protein kinase CK2” (University of Tartu, priority 2012, dated 2015).
Where a SMILES comes first, the peptide text is derived from it. [ ]: non-standard residue; d: D form. The star is where a group is joined. X1 = O=C(CCCCCCCn1cnc2c(Br)c(Br)c(Br)c(Br)c21)*

How the values were obtained:
Experiment in all cases: Kinase panel residual activity
Format in all cases: biochemical
Settings in all cases: compound at 1 micromolar
IGF-1R = IGF-1R (Homo sapiens, UniProt P08069)
Src = Src (Homo sapiens, UniProt P12931)
ERK8 = biological target: T1, ERK8 (Homo sapiens, UniProt Q8TD08)
T1 sequence (Q8TD08 1-544): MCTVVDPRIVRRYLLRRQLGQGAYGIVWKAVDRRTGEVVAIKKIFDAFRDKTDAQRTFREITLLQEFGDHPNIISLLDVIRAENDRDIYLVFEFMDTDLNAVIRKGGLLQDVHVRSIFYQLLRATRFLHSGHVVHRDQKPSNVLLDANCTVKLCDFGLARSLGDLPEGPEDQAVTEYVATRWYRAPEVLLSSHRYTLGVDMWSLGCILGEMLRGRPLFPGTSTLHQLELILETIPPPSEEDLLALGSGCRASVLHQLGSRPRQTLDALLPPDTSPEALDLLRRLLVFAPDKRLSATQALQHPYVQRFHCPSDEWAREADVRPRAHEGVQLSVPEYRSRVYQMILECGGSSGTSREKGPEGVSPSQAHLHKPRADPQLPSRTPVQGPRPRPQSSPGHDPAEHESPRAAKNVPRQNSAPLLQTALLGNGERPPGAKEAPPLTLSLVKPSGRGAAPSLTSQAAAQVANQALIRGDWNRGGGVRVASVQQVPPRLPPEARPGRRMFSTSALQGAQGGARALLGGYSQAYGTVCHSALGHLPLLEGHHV

PAK4 = PAK4 (Homo sapiens, UniProt O96013)
JNK3 = JNK3 (Homo sapiens, UniProt P53779)
MARK4 = biological target: T2, MARK4 (Homo sapiens, UniProt Q96L34)
T2 sequence (Q96L34 1-752): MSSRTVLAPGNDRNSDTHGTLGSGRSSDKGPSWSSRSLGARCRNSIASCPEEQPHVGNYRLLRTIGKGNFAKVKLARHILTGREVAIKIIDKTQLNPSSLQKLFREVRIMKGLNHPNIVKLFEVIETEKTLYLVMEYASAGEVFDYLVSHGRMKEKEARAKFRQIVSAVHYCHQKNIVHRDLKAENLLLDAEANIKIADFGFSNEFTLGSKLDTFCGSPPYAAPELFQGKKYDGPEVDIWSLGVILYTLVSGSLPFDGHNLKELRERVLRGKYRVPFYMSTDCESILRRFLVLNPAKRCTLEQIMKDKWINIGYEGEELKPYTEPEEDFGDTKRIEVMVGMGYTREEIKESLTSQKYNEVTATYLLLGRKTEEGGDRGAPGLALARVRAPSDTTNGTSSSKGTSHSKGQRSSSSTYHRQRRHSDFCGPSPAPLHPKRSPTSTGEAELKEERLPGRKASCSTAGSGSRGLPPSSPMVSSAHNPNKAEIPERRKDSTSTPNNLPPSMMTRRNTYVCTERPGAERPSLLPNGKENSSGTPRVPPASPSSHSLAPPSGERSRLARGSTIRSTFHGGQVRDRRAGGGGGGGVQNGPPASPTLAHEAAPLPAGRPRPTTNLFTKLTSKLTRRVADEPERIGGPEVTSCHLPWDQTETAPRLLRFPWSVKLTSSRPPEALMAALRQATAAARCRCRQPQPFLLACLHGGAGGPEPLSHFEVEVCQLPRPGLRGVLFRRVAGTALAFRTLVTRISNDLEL

Aurora A = biological target: T3, Aurora A (Homo sapiens, UniProt O14965)
T3 sequence (O14965 1-403): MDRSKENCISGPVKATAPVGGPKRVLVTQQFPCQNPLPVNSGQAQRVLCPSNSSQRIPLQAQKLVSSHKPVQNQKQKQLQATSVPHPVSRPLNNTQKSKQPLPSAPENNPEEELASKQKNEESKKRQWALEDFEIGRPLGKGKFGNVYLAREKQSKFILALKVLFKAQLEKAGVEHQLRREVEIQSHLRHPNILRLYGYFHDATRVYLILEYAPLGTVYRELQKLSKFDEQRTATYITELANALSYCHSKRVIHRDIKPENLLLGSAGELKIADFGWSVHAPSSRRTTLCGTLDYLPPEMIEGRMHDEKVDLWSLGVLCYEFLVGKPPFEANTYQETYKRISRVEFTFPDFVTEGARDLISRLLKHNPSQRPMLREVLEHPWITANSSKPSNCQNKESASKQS

p38g MAPK = biological target: T4, p38g MAPK (Homo sapiens, UniProt P53778)
T4 sequence (P53778 1-367): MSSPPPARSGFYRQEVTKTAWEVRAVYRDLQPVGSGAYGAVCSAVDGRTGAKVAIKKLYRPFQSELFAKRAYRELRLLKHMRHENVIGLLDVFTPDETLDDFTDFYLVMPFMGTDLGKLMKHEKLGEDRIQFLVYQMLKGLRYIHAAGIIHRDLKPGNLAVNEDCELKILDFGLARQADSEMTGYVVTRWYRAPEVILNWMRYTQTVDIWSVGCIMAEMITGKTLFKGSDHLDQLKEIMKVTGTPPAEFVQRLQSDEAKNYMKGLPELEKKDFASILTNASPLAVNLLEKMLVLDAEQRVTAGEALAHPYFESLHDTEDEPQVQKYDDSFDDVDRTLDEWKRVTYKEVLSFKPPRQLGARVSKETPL

ZAP70 = biological target: T5, ZAP70 (Homo sapiens, UniProt P43403)
T5 sequence (P43403 1-619): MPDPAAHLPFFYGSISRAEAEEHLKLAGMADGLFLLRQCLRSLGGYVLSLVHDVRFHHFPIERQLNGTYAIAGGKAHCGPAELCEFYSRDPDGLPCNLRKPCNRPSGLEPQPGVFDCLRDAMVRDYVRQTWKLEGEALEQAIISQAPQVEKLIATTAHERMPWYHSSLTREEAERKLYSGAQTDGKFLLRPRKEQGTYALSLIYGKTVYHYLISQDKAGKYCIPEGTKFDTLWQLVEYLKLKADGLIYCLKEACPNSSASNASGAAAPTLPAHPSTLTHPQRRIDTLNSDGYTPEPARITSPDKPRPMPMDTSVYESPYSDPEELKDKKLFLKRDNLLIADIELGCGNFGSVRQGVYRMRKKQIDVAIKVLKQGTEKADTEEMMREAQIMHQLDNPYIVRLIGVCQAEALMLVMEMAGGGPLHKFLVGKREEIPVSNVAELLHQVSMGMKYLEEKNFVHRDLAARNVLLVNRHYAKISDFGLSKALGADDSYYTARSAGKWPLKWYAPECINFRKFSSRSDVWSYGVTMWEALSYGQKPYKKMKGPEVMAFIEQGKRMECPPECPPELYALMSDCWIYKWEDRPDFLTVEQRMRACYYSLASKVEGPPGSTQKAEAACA

Sequence of JNK3 (P53779 whole entry, species assumed): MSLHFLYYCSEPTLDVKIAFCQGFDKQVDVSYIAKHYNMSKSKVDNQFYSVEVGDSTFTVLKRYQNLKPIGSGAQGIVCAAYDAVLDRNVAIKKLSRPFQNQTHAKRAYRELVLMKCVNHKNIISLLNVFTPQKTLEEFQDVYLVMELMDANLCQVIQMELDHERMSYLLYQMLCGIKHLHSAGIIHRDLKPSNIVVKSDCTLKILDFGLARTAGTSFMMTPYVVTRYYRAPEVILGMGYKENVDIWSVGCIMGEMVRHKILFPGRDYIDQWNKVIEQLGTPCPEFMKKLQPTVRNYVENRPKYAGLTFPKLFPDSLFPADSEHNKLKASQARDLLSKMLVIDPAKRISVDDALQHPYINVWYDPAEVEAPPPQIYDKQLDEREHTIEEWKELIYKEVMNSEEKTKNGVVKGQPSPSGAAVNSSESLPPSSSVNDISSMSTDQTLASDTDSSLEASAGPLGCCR
Sequence of PAK4 (O96013 whole entry, species assumed): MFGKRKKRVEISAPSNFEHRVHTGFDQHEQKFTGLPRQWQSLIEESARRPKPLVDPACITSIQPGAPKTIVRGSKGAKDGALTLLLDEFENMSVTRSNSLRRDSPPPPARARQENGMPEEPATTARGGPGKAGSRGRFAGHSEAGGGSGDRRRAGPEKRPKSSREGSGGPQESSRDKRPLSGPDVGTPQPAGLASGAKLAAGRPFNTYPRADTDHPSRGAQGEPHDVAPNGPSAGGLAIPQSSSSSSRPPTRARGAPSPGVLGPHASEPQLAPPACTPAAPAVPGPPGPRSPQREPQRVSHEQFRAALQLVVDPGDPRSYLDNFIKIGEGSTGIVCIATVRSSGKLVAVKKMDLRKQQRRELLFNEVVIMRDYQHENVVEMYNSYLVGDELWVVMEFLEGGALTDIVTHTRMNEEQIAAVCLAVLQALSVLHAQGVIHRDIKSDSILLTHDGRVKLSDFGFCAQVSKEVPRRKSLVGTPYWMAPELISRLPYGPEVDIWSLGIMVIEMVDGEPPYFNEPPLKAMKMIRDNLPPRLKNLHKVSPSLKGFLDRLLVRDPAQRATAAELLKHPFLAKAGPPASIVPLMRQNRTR
Sequence of IGF-1R (P08069 31-1367, species assumed): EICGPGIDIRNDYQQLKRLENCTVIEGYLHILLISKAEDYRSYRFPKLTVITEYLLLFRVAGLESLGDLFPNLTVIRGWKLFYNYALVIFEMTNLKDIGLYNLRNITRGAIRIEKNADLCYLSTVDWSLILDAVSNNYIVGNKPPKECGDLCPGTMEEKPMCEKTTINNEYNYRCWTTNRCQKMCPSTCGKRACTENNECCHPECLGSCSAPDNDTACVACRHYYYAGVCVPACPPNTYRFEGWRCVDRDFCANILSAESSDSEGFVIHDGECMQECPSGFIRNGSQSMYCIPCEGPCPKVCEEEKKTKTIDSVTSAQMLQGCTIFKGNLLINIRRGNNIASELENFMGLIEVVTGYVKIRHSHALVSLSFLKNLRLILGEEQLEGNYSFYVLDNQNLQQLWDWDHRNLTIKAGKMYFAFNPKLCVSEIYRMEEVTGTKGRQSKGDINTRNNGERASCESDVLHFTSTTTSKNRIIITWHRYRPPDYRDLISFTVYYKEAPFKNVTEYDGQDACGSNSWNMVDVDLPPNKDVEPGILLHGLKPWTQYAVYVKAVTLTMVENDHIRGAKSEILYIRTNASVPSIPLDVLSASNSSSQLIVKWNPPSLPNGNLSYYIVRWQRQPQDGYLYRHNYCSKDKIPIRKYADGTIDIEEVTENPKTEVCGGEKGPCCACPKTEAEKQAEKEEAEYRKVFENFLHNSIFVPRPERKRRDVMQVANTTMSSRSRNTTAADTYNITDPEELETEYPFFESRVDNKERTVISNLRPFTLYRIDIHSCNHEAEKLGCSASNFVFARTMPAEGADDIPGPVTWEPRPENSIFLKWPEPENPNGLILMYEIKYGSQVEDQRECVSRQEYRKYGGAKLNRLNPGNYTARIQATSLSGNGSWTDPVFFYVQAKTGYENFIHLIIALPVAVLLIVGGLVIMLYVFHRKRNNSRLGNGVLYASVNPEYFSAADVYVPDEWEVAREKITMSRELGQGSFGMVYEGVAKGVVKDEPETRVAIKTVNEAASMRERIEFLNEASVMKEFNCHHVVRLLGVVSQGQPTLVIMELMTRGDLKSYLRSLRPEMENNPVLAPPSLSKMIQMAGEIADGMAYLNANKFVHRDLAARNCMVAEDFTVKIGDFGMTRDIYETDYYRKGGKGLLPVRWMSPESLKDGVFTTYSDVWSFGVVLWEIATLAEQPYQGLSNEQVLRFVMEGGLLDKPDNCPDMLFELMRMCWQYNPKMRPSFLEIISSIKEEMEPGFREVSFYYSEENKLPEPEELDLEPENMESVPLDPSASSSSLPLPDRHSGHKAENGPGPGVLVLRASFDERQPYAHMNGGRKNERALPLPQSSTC
Sequence of Src (P12931 whole entry, species assumed): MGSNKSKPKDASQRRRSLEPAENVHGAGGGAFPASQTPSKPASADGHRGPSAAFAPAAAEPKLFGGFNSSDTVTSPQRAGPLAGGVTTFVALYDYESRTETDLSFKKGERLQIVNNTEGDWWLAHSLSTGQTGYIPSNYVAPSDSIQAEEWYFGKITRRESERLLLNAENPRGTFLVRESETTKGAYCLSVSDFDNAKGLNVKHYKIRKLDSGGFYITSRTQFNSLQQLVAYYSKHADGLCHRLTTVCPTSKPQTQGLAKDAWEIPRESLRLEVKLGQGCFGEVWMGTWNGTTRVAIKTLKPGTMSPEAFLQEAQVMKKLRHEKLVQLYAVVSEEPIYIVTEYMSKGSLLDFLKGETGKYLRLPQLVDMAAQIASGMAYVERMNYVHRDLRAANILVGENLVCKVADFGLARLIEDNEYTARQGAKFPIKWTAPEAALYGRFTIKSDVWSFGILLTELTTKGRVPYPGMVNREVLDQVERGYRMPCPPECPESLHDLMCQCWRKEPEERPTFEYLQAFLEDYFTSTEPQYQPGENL

Work on `NCCCC[C@H](NC(=O)[C@H](CC(=O)O)NC(=O)[C@H](CC(=O)O)NC(=O)[C@H](CC(=O)O)NC(=O)[C@H](CC(=O)O)NC(=O)[C@H](CC(=O)O)NC(=O)[C@@H](CC(=O)O)NC(=O)CCCCCCCn1cnc2c(Br)c(Br)c(Br)c(Br)c21)C(=O)O` [TBBI-OcA-(D-Asp)-(L-Asp)5-(L-Lys)-OH] (X1-[dD]DDDDDK-OH) yielded a remaining activity at 1 µM (IGF-1R) of 116%, a remaining activity at 1 µM (Src) of 57% and a remaining activity at 1 µM (ERK8) of 25%. For the same molecule, the remaining activity at 1 µM (PAK4) was 71%, the remaining activity at 1 µM (JNK3) was 85% and the remaining activity at 1 µM (MARK4) was 75%. For the same molecule, the remaining activity at 1 µM (Aurora A) was 118%, the remaining activity at 1 µM (p38g MAPK) was 97% and the remaining activity at 1 µM (ZAP70) was 97%.
